According to article PMC6362288:

Target: protein G (UniProt P19909)
Experiment: ELISA; polystyrene wells modified with the PrG-Gra complex (PrG adsorbed on graphene, 2:1); mAb 5, 10, 15 µg/ml; unreacted mAb in the supernatant by Bradford, bound mAb by Anti-IgGk-HRP at 450 nm

absorbance (Anti-IgGk-HRP) against PS modified with the PrG alone: 2 fold
Substance: mouse monoclonal IgG2b (mAb) (antibody)
